US20250027068
Residue numbers refer to the chain shown, from its start.

Target: pooled human IgG (human IgG1, 2, 3 and 4)

B1: PRT-583 (protein)
chain: MANQEIRYSKAKPKVITSVWTKGVTPPTQFTKNEDVFHAPYLANQGWYDITKTFNGKDDLLCGAATAGNMLHWWFDQNKEQIERYLKKHPEKQKINFNGEQMFDVKEAIDTKDSQTNSKLFNYFKEKAFPYLSTKHLGVFPDHVIDMFINGYRLSLTNHGPTPVKEQNKDPRGGIFDDVFTRGDQSKLLTSRHDFKEKTLKEISDLIKQELKEGKALGLSHTYANVRINHVINLWGADFDAEGNLIAIYVTDSDSNASIGMKKYYVGVNSAGKVAISAKEIEDDNIGAQVLGLFTLSTGKDIWEKTNLEHHHHHH
- Enzyme Activity Endpoint Assay: Fab′2: 748 ng/µL
- Enzyme Activity Endpoint Assay: Fc: 396 ng/µL
- Enzyme Activity Endpoint Assay: IgG: 0 ng/µL
- Enzyme Activity Endpoint Assay: scIgG: 261 ng/µL

B2: PRT-556 (protein)
chain: B1 chain with K32Y, A43P, K88E, E126D, I246V
- Enzyme Activity Endpoint Assay: Fab′2: 570 ng/µL
- Enzyme Activity Endpoint Assay: Fc: 351 ng/µL
- Enzyme Activity Endpoint Assay: IgG: 16 ng/µL
- Enzyme Activity Endpoint Assay: scIgG: 200 ng/µL

B3: PRT-270 (protein)
chain: MVTSVWTKGVTPPTDFIYGEDVLHAPYKAGQGWYDITKLFNGKDDLLCGAATAGNMLHWWFDQNKEQIENYLKKHPEKQKINFNGEQMFDVKEAIDTKDSQLDSKLFEYFLEKAFPNLSTKHLGVFPDHVIDMFINGYRLSLLNHGPTPVKRGSKDPRGGIFDAVFTRGDQSKLLTNRHDLKNKTLKEISDLIKQELTEGKALGISHTYANGRINHVINLWGADFDAEGNLEAIAVTDSDSNASIGMKKYFVGVNSSGKVAISAKEIEEDNIGAQVLGLFTLSTGQDIWNQTN
- Enzyme Activity Endpoint Assay: Fab′2: 376 ng/µL
- Enzyme Activity Endpoint Assay: Fc: 288 ng/µL
- Enzyme Activity Endpoint Assay: IgG: 100 ng/µL
- Enzyme Activity Endpoint Assay: scIgG: 311 ng/µL

B4: PRT-254 (protein)
chain: MVTSVWTKGVTPPTNFTYGEDVLHAPYVANQGWYDITKTFNGKDDLLCGAATAGNMLHWWFDQNKEQIENYLKKHPEKQKINFNGEQMFDVKEAIDTKDSQLDSKLFEYFLEKAFPNLSTKHLGVFPDHVIDMFINGYRLSLLNHGPTPVKRGSKDPRGGIFDAVFTRGDQSKLLTNRHDFKEKTLKEISDLIKQELTEGKALGISHTYANVRINHVINLWGADFDAEGNLEAIYVTDSDSNKSIGMKKYPVGVNSNGKVAISAKEIEEDNIGAQVLGLFTLSTGQDIWNQTN
- Enzyme Activity Endpoint Assay: Fab′2: 677 ng/µL
- Enzyme Activity Endpoint Assay: Fc: 359 ng/µL
- Enzyme Activity Endpoint Assay: IgG: 0 ng/µL
- Enzyme Activity Endpoint Assay: scIgG: 0 ng/µL

B5: PRT-262 (protein)
chain: B4 chain with D45N, M88L, P157K, D170V, Y235A, S241T, K243A, P251F, N257S
- Enzyme Activity Endpoint Assay: Fab′2: 50 ng/µL
- Enzyme Activity Endpoint Assay: Fc: 191 ng/µL
- Enzyme Activity Endpoint Assay: IgG: 289 ng/µL
- Enzyme Activity Endpoint Assay: scIgG: 802 ng/µL

B6: PRT-573 (protein)
chain: MANQEIRYSEETPSTITSVWTKGVTPPTQFIQNEDVLHAPYIANQGWYDITKTFNGKDDLLCGAATAGNMLHWWFDQNKEQIENYLKKHPEKQKINFNGEQMFDVKEAIDTKDSQTDSALFSYFKDKAFPYLSTKHLGVFPDHVIDMFINGYRLSLTNHGPTPVKRQTKDPRGGIFDAVFTRGDQSKLLTSRHDFKEKTLNEISQLIKQELTEGKALGLSHTYANVRINHVINLWGADFNAEGNLEAIYVTDSDSNASIGMKKYYVGVNSAGKVAISAKEIEGDNIGAQVLGLFTLSTGQDIWQQTNLEHHHHHH
- Enzyme Activity Endpoint Assay: Fab′2: 759 ng/µL
- Enzyme Activity Endpoint Assay: Fc: 409 ng/µL
- Enzyme Activity Endpoint Assay: IgG: 0 ng/µL
- Enzyme Activity Endpoint Assay: scIgG: 0 ng/µL

B7: PRT-246 (protein)
chain: MVTSVWTKGVTPPANFTQGEDVFHAPYVANQGWYDITKLFNGKDDLLCGAATAGNMLHWWFDQNKDQIKRYLEEHPEKQKINFNGEQMFDVKEAIDTKNHQLDSKLFDYFKEKAFPYLSTKHLGVFPDHVIDMFINGYRLSLTNHGPTPVKEGSKDPRGGIFDAVFTRGDQSKLLTSRHDFKEKNLKEISDLIKKELTEGKALGLSHTYANVRINHVINLWGADFDSNGNLKAIYVTDSDSNPSIGMKKYFVGVNSSGKVAISAKEIKEDNIGAQVLGLFTLSTGQDSWNQTN
- Enzyme Activity Endpoint Assay: Fab′2: 666 ng/µL
- Enzyme Activity Endpoint Assay: Fc: 348 ng/µL
- Enzyme Activity Endpoint Assay: IgG: 0 ng/µL
- Enzyme Activity Endpoint Assay: scIgG: 221 ng/µL

B8: PRT-534 (protein)
chain: MANQEIRYSSDSEWANKKVWVYGITPPEEGAWKYSTYYLPWKKEYGWYDCNKRNPTADGMMCWAATASNLLHWWIAQNKEYIDLYGDKYKGPDKINFNGEQMFDVKEYIDPLDKPQESDIFQCFIDKSFADLSTKHEAGYGDAGINWFIHGIIPSSPAHGPTPVKLDYPYNPAGYFKDVFPRGDGVVLLGNNGDFKELSKERFNETIKDALKNKKAIGLSIGPVNVRSSHVVTIWGAEFDENGDVSYIYMADNNDNWGVGCIRYQIVYEEGGTYTCYKTEIIPSDRPIPINRLVTLELGEEYWKQTNLEHHHHHH
- Enzyme Activity Endpoint Assay: Fab′2: 0 ng/µL
- Enzyme Activity Endpoint Assay: Fc: 0 ng/µL
- Enzyme Activity Endpoint Assay: IgG: 1380 ng/µL
- Enzyme Activity Endpoint Assay: scIgG: 0 ng/µL

B9: PRT-544 (protein)
chain: MANQEIRYSKNENPNVTIKWVHGIGEPTQAEKEKIEFWWYETTTTKFFNNRKVDHLGDGNQCWAKTDSNMLHWWFVQNEENINQYIAKKNITGKINFNGEQMFDVKEGIDDNQEKEKSYIANTFRTKKAHNLSTKHKGDYIINGLSWYLYGLNNFKIAHGPTPVKKKPKFYGPALFKDVFNRGDGNTPIIVETDFKEYTKKEFEDTLSAALDSKKAIGINIYGSNVDYQHAITLWGAAFDEEENIIAIYVVDNNFKFENRIFPYGIWYQKEGRPYLFNYEINSFVKNRYVGEVITLDKGEAQWQETNLEHHHHHH
- Enzyme Activity Endpoint Assay: Fab′2: 12 ng/µL
- Enzyme Activity Endpoint Assay: Fc: 170 ng/µL
- Enzyme Activity Endpoint Assay: IgG: 314 ng/µL
- Enzyme Activity Endpoint Assay: scIgG: 748 ng/µL

B10: PRT-541 (protein)
chain: B9 chain with N181S, I294T
- Enzyme Activity Endpoint Assay: Fab′2: 0 ng/µL
- Enzyme Activity Endpoint Assay: Fc: 0 ng/µL
- Enzyme Activity Endpoint Assay: IgG: 854 ng/µL
- Enzyme Activity Endpoint Assay: scIgG: 3 ng/µL

B11: PRT-545 (protein)
chain: MANQEIRYSEETPKTITSVWTKGVTPPTDFIKNEDVLHAPYIANQGWYDITKTFNGKDDLLCGAATAGNMLHWWFDQNKEEIERYLKKHPEKQKINFNGEQMFDVKEAIDTKDSQTDSALFEYFKDKAFPYLSTKHLGVFPDHVIDMFINGYRLSLTNHGPTPVKRGTKDPRGGIFDAVFTRGDQSKLLTSRHDFKEKTLKEISDLIKQELTEGKALGLSHTYANVRINHVINLWGADFDSEGNLEAIYVTDSDSNASIGMKKYYVGVNSAGKVAISAKEIEGDNIGAQVLGLFTLSTGQDIWEQTNLEHHHHHH
- Enzyme Activity Endpoint Assay: Fab′2: 690 ng/µL
- Enzyme Activity Endpoint Assay: Fc: 435 ng/µL
- Enzyme Activity Endpoint Assay: IgG: 0 ng/µL
- Enzyme Activity Endpoint Assay: scIgG: 0 ng/µL

B12: PRT-596 (protein)
chain: B6 chain with Q29D, S122E, Q167G, Q205D, Q209K, Q304N
- Enzyme Activity Endpoint Assay: Fab′2: 753 ng/µL
- Enzyme Activity Endpoint Assay: Fc: 348 ng/µL
- Enzyme Activity Endpoint Assay: IgG: 0 ng/µL
- Enzyme Activity Endpoint Assay: scIgG: 263 ng/µL

B13: PRT-555 (protein)
chain: B11 chain with I42V, A119K, K201N, T212Q, G283D, Q300K
- Enzyme Activity Endpoint Assay: Fab′2: 670 ng/µL
- Enzyme Activity Endpoint Assay: Fc: 475 ng/µL
- Enzyme Activity Endpoint Assay: IgG: 0 ng/µL
- Enzyme Activity Endpoint Assay: scIgG: 0 ng/µL

B14: PRT-567 (protein)
chain: B6 chain with Q29D, S122E, Q167G, Q205D, Q304N
- Enzyme Activity Endpoint Assay: Fab′2: 385 ng/µL
- Enzyme Activity Endpoint Assay: Fc: 297 ng/µL
- Enzyme Activity Endpoint Assay: IgG: 65 ng/µL
- Enzyme Activity Endpoint Assay: scIgG: 372 ng/µL

B15: PRT-554 (protein)
chain: B11 chain with L37F, I42V, R84N, E122N, R166D, S186T, S191A, K201N, S270A, G283D
- Enzyme Activity Endpoint Assay: Fab′2: 580 ng/µL
- Enzyme Activity Endpoint Assay: Fc: 350 ng/µL
- Enzyme Activity Endpoint Assay: IgG: 36 ng/µL
- Enzyme Activity Endpoint Assay: scIgG: 0 ng/µL

B16: PRT-587 (protein)
chain: B11 chain with K32Y, E81Q, A119K, K201N, D240N, Q300K
- Enzyme Activity Endpoint Assay: Fab′2: 347 ng/µL
- Enzyme Activity Endpoint Assay: Fc: 156 ng/µL
- Enzyme Activity Endpoint Assay: IgG: 0 ng/µL
- Enzyme Activity Endpoint Assay: scIgG: 120 ng/µL

B17: PRT-571 (protein)
chain: B6 chain with S122E, Q167G, Q205D, S270A, Q304N
- Enzyme Activity Endpoint Assay: Fab′2: 786 ng/µL
- Enzyme Activity Endpoint Assay: Fc: 383 ng/µL
- Enzyme Activity Endpoint Assay: IgG: 0 ng/µL
- Enzyme Activity Endpoint Assay: scIgG: 295 ng/µL

B18: PRT-575 (protein)
chain: B11 chain with K32Y, E81Q, D117N, A119K, R166E, G167Q, S241A, Q300K
- Enzyme Activity Endpoint Assay: Fab′2: 254 ng/µL
- Enzyme Activity Endpoint Assay: Fc: 309 ng/µL
- Enzyme Activity Endpoint Assay: IgG: 94 ng/µL
- Enzyme Activity Endpoint Assay: scIgG: 607 ng/µL
